± gives the uncertainty stated by the source.
B1: Friend leukemia integration 1 transcription factor, residues 116 to 197; numbered along this chain, Q01543 (parent)
chain: NMTTNERRVIVPADPTLWTQEHVRQWLEWAIKEYSLMEIDTSFFQNMDGKELCKMNKEDFLRATTLYNTEVLLSHLSYLRES

Variants of: B1
Experiment: abundance fitness (aPCA) (normalised: wild type 0, dead -1); higher = more abundant; growth selection in yeast, the domain comes from the species named
Settings: Homo sapiens

| Variant | abundance fitness |
| --- | --- |
| NMTTNERRVIVPADPTLWTQEHVRQWLEWAIKEYSLMEIDTSFFQNMDGKELCKMVKEDFLRATTLYNTEVLLSHLSYLRES | -0.054 ± 0.072 |
| NMTTNERRVIVPADPTLWTQEHVRQWLEWAIKEYSLMEIDTSFFQNMDGKELCKMHKEDFLRATTLYNTEVLLSHLSYLRES | 0.12 ± 0.11 |
| NMTTNERRVIVPADPTLWTQEHVRQWLEWAIKEYSLMEIDTSFFQNMDGKELCKMMKEDFLRATTLYNTEVLLSHLSYLRES | -0.002 ± 0.099 |
| NMTTNERRVIVPADPTLWTQEHVRQWLEWAIKEYSLMEIDTSFFQNMDGKELCKMIKEDFLRATTLYNTEVLLSHLSYLRES | -0.247 ± 0.11 |
| NMTTNERRVIVPADPTLWTQEHVRQWLEWAIKEYSLMEIDTSFFQNMDGKELCKMPKEDFLRATTLYNTEVLLSHLSYLRES | -0.155 ± 0.071 |
| NMTTNERRVIVPADPTLWTQEHVRQWLEWAIKEYSLMEIDTSFFQNMDGKELCKMGKEDFLRATTLYNTEVLLSHLSYLRES | 0.049 ± 0.074 |
| NMTTNERRVIVPADPTLWTQEHVRQWLEWAIKEYSLMEIDTSFFQNMDGKELCKMRKEDFLRATTLYNTEVLLSHLSYLRES | -0.226 ± 0.071 |
| NMTTNERRVIVPADPTLWTQEHVRQWLEWAIKEYSLMEIDTSFFQNMDGKELCKMSKEDFLRATTLYNTEVLLSHLSYLRES | -0.043 ± 0.059 |
| NMTTNERRVIVPADPTLWTQEHVRQWLEWAIKEYSLMEIDTSFFQNMDGKELCKMQKEDFLRATTLYNTEVLLSHLSYLRES | -0.043 ± 0.076 |
| NMTTNERRVIVPADPTLWTQEHVRQWLEWAIKEYSLMEIDTSFFQNMDGKELCKMLKEDFLRATTLYNTEVLLSHLSYLRES | -0.129 ± 0.052 |
| NMTTNERRVIVPADPTLWTQEHVRQWLEWAIKEYSLMEIDTSFFQNMDGKELCKMYKEDFLRATTLYNTEVLLSHLSYLRES | -0.54 ± 0.25 |
| NMTTNERRVIVPADPTLWTQEHVRQWLEWAIKEYSLMEIDTSFFQNMDGKELCKMKKEDFLRATTLYNTEVLLSHLSYLRES | 0.125 ± 0.14 |
| NMTTNERRVIVPADPTLWTQEHVRQWLEWAIKEYSLMEIDTSFFQNMDGKELCKMWKEDFLRATTLYNTEVLLSHLSYLRES | -0.221 ± 0.087 |
| NMTTNERRVIVPADPTLWTQEHVRQWLEWAIKEYSLMEIDTSFFQNMDGKELCKMNQEDFLRATTLYNTEVLLSHLSYLRES | 0.043 ± 0.074 |
| NMTTNERRVIVPADPTLWTQEHVRQWLEWAIKEYSLMEIDTSFFQNMDGKELCKMNTEDFLRATTLYNTEVLLSHLSYLRES | -0.086 ± 0.096 |
| NMTTNERRVIVPADPTLWTQEHVRQWLEWAIKEYSLMEIDTSFFQNMDGKELCKMNCEDFLRATTLYNTEVLLSHLSYLRES | -0.212 ± 0.31 |
| NMTTNERRVIVPADPTLWTQEHVRQWLEWAIKEYSLMEIDTSFFQNMDGKELCKMNYEDFLRATTLYNTEVLLSHLSYLRES | -0.145 ± 0.14 |
| NMTTNERRVIVPADPTLWTQEHVRQWLEWAIKEYSLMEIDTSFFQNMDGKELCKMNDEDFLRATTLYNTEVLLSHLSYLRES | -0.312 ± 0.16 |
| NMTTNERRVIVPADPTLWTQEHVRQWLEWAIKEYSLMEIDTSFFQNMDGKELCKMNNEDFLRATTLYNTEVLLSHLSYLRES | -0.071 ± 0.12 |
| NMTTNERRVIVPADPTLWTQEHVRQWLEWAIKEYSLMEIDTSFFQNMDGKELCKMNMEDFLRATTLYNTEVLLSHLSYLRES | 0.008 ± 0.091 |
| NMTTNERRVIVPADPTLWTQEHVRQWLEWAIKEYSLMEIDTSFFQNMDGKELCKMNHEDFLRATTLYNTEVLLSHLSYLRES | -0.52 ± 0.24 |
| NMTTNERRVIVPADPTLWTQEHVRQWLEWAIKEYSLMEIDTSFFQNMDGKELCKMNWEDFLRATTLYNTEVLLSHLSYLRES | -0.124 ± 0.11 |
| NMTTNERRVIVPADPTLWTQEHVRQWLEWAIKEYSLMEIDTSFFQNMDGKELCKMNREDFLRATTLYNTEVLLSHLSYLRES | -0.052 ± 0.072 |

| Variant | abundance fitness |
| --- | --- |
| NMTTNERRVIVPADPTLWTQEHVRQWLEWAIKEYSLMEIDTSFFQNMDGKELCKMNAEDFLRATTLYNTEVLLSHLSYLRES | -0.268 ± 0.11 |
| NMTTNERRVIVPADPTLWTQEHVRQWLEWAIKEYSLMEIDTSFFQNMDGKELCKMNVEDFLRATTLYNTEVLLSHLSYLRES | -0.013 ± 0.067 |
| NMTTNERRVIVPADPTLWTQEHVRQWLEWAIKEYSLMEIDTSFFQNMDGKELCKMNEEDFLRATTLYNTEVLLSHLSYLRES | -0.135 ± 0.077 |
| NMTTNERRVIVPADPTLWTQEHVRQWLEWAIKEYSLMEIDTSFFQNMDGKELCKMNSEDFLRATTLYNTEVLLSHLSYLRES | -0.319 ± 0.084 |
| NMTTNERRVIVPADPTLWTQEHVRQWLEWAIKEYSLMEIDTSFFQNMDGKELCKMNLEDFLRATTLYNTEVLLSHLSYLRES | -0.213 ± 0.079 |
| NMTTNERRVIVPADPTLWTQEHVRQWLEWAIKEYSLMEIDTSFFQNMDGKELCKMNGEDFLRATTLYNTEVLLSHLSYLRES | -0.433 ± 0.088 |
| NMTTNERRVIVPADPTLWTQEHVRQWLEWAIKEYSLMEIDTSFFQNMDGKELCKMNFEDFLRATTLYNTEVLLSHLSYLRES | -0.451 ± 0.21 |
| NMTTNERRVIVPADPTLWTQEHVRQWLEWAIKEYSLMEIDTSFFQNMDGKELCKMNKEDGLRATTLYNTEVLLSHLSYLRES | -1.1 ± 0.28 |
| NMTTNERRVIVPADPTLWTQEHVRQWLEWAIKEYSLMEIDTSFFQNMDGKELCKMNKEDKLRATTLYNTEVLLSHLSYLRES | -0.801 ± 0.22 |
| NMTTNERRVIVPADPTLWTQEHVRQWLEWAIKEYSLMEIDTSFFQNMDGKELCKMNKEDCLRATTLYNTEVLLSHLSYLRES | -0.545 ± 0.21 |
| NMTTNERRVIVPADPTLWTQEHVRQWLEWAIKEYSLMEIDTSFFQNMDGKELCKMNKEDMLRATTLYNTEVLLSHLSYLRES | -0.277 ± 0.12 |
| NMTTNERRVIVPADPTLWTQEHVRQWLEWAIKEYSLMEIDTSFFQNMDGKELCKMNKEDALRATTLYNTEVLLSHLSYLRES | -0.75 ± 0.17 |
| NMTTNERRVIVPADPTLWTQEHVRQWLEWAIKEYSLMEIDTSFFQNMDGKELCKMNKEDLLRATTLYNTEVLLSHLSYLRES | -0.116 ± 0.06 |
| NMTTNERRVIVPADPTLWTQEHVRQWLEWAIKEYSLMEIDTSFFQNMDGKELCKMNKERFLRATTLYNTEVLLSHLSYLRES | -0.327 ± 0.066 |
| NMTTNERRVIVPADPTLWTQEHVRQWLEWAIKEYSLMEIDTSFFQNMDGKELCKMNKEVFLRATTLYNTEVLLSHLSYLRES | -0.211 ± 0.071 |
| NMTTNERRVIVPADPTLWTQEHVRQWLEWAIKEYSLMEIDTSFFQNMDGKELCKMNKECFLRATTLYNTEVLLSHLSYLRES | -0.046 ± 0.11 |
| NMTTNERRVIVPADPTLWTQEHVRQWLEWAIKEYSLMEIDTSFFQNMDGKELCKMNKEKFLRATTLYNTEVLLSHLSYLRES | -0.052 ± 0.13 |
| NMTTNERRVIVPADPTLWTQEHVRQWLEWAIKEYSLMEIDTSFFQNMDGKELCKMNKEYFLRATTLYNTEVLLSHLSYLRES | -0.045 ± 0.21 |
| NMTTNERRVIVPADPTLWTQEHVRQWLEWAIKEYSLMEIDTSFFQNMDGKELCKMNKESFLRATTLYNTEVLLSHLSYLRES | -0.126 ± 0.085 |
| NMTTNERRVIVPADPTLWTQEHVRQWLEWAIKEYSLMEIDTSFFQNMDGKELCKMNKEPFLRATTLYNTEVLLSHLSYLRES | -0.882 ± 0.14 |
| NMTTNERRVIVPADPTLWTQEHVRQWLEWAIKEYSLMEIDTSFFQNMDGKELCKMNKEWFLRATTLYNTEVLLSHLSYLRES | -0.106 ± 0.067 |
| NMTTNERRVIVPADPTLWTQEHVRQWLEWAIKEYSLMEIDTSFFQNMDGKELCKMNKEAFLRATTLYNTEVLLSHLSYLRES | -0.035 ± 0.084 |
| NMTTNERRVIVPADPTLWTQEHVRQWLEWAIKEYSLMEIDTSFFQNMDGKELCKMNKEFFLRATTLYNTEVLLSHLSYLRES | -0.144 ± 0.16 |

| Variant | abundance fitness |
| --- | --- |
| NMTTNERRVIVPADPTLWTQEHVRQWLEWAIKEYSLMEIDTSFFQNMDGKELCKMNKEIFLRATTLYNTEVLLSHLSYLRES | -0.607 ± 0.31 |
| NMTTNERRVIVPADPTLWTQEHVRQWLEWAIKEYSLMEIDTSFFQNMDGKELCKMNKEEFLRATTLYNTEVLLSHLSYLRES | -0.184 ± 0.1 |
| NMTTNERRVIVPADPTLWTQEHVRQWLEWAIKEYSLMEIDTSFFQNMDGKELCKMNKEMFLRATTLYNTEVLLSHLSYLRES | -0.17 ± 0.076 |
| NMTTNERRVIVPADPTLWTQEHVRQWLEWAIKEYSLMEIDTSFFQNMDGKELCKMNKEGFLRATTLYNTEVLLSHLSYLRES | -0.058 ± 0.075 |
| NMTTNERRVIVPADPTLWTQEHVRQWLEWAIKEYSLMEIDTSFFQNMDGKELCKMNKETFLRATTLYNTEVLLSHLSYLRES | -0.189 ± 0.086 |
| NMTTNERRVIVPADPTLWTQEHVRQWLEWAIKEYSLMEIDTSFFQNMDGKELCKMNKEHFLRATTLYNTEVLLSHLSYLRES | -0.177 ± 0.23 |
| NMTTNERRVIVPADPTLWTQEHVRQWLEWAIKEYSLMEIDTSFFQNMDGKELCKMNKEQFLRATTLYNTEVLLSHLSYLRES | -0.087 ± 0.068 |
| NMTTNERRVIVPADPTLWTQEHVRQWLEWAIKEYSLMEIDTSFFQNMDGKELCKMNKNDFLRATTLYNTEVLLSHLSYLRES | 0.048 ± 0.32 |
| NMTTNERRVIVPADPTLWTQEHVRQWLEWAIKEYSLMEIDTSFFQNMDGKELCKMNKYDFLRATTLYNTEVLLSHLSYLRES | 0.015 ± 0.22 |
| NMTTNERRVIVPADPTLWTQEHVRQWLEWAIKEYSLMEIDTSFFQNMDGKELCKMNKMDFLRATTLYNTEVLLSHLSYLRES | -0.19 ± 0.072 |
| NMTTNERRVIVPADPTLWTQEHVRQWLEWAIKEYSLMEIDTSFFQNMDGKELCKMNKWDFLRATTLYNTEVLLSHLSYLRES | -0.153 ± 0.057 |
| NMTTNERRVIVPADPTLWTQEHVRQWLEWAIKEYSLMEIDTSFFQNMDGKELCKMNKVDFLRATTLYNTEVLLSHLSYLRES | -0.17 ± 0.077 |
| NMTTNERRVIVPADPTLWTQEHVRQWLEWAIKEYSLMEIDTSFFQNMDGKELCKMNKTDFLRATTLYNTEVLLSHLSYLRES | -0.053 ± 0.1 |
| NMTTNERRVIVPADPTLWTQEHVRQWLEWAIKEYSLMEIDTSFFQNMDGKELCKMNKGDFLRATTLYNTEVLLSHLSYLRES | 0.028 ± 0.077 |
| NMTTNERRVIVPADPTLWTQEHVRQWLEWAIKEYSLMEIDTSFFQNMDGKELCKMNKKDFLRATTLYNTEVLLSHLSYLRES | -0.162 ± 0.12 |
| NMTTNERRVIVPADPTLWTQEHVRQWLEWAIKEYSLMEIDTSFFQNMDGKELCKMNKCDFLRATTLYNTEVLLSHLSYLRES | -0.11 ± 0.12 |
| NMTTNERRVIVPADPTLWTQEHVRQWLEWAIKEYSLMEIDTSFFQNMDGKELCKMNKADFLRATTLYNTEVLLSHLSYLRES | 0.119 ± 0.069 |
| NMTTNERRVIVPADPTLWTQEHVRQWLEWAIKEYSLMEIDTSFFQNMDGKELCKMNKRDFLRATTLYNTEVLLSHLSYLRES | -0.032 ± 0.064 |
| NMTTNERRVIVPADPTLWTQEHVRQWLEWAIKEYSLMEIDTSFFQNMDGKELCKMNKPDFLRATTLYNTEVLLSHLSYLRES | 0.01 ± 0.082 |
| NMTTNERRVIVPADPTLWTQEHVRQWLEWAIKEYSLMEIDTSFFQNMDGKELCKMNKFDFLRATTLYNTEVLLSHLSYLRES | -0.228 ± 0.23 |
| NMTTNERRVIVPADPTLWTQEHVRQWLEWAIKEYSLMEIDTSFFQNMDGKELCKMNKLDFLRATTLYNTEVLLSHLSYLRES | -0.117 ± 0.054 |

Source: the Human Domainome abundance scans (Beltran et al. 2025)
